Patent US20220195051A1 (UNIVERSIT T Z RICH, published 2022)

Biological target: T1, human recombinant biotinylated FcRn (Immunitrack) (human, UniProt P55899 24-297, biotinylated (site not told))
T1 construct: Immobilised on a ProteOn NLC chip for SPR at pH 6.0; also called human FcRn; hFcRn
Test: SPR, human FcRn immobilised, IL-12Fc variants in solution, pH 6.0
Experimental: SPR was performed using the ProteOn XPR36 System (Bio-Rad Laboratories, Inc.), coating human recombinant biotinylated FcRn (Immunitrack) on a ProteOn NLC sensor chip to approximately 80 response units (RU). […] The dissociation time was 600 s. Analysis was performed using the ProteOn Manager software (Bio-Rad Laboratories, Inc.) using data normalization to the injection time, interspot background removal and build-in artefact removal function. Kd were calculated using the equilibrium analysis model.

T1 sequence (P55899 24-297): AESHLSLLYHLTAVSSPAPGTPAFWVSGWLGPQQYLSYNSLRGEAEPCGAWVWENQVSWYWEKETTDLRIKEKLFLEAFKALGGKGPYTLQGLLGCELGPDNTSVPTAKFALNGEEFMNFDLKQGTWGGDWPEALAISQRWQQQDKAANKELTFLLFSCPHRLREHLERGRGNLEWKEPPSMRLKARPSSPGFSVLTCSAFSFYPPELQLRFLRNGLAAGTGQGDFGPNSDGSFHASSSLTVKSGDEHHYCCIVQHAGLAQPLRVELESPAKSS

B1: human IL-12Fc NHQ (Fc fusion)
chain: IWELKKDVYVVELDWYPDAPGEMVVLTCDTPEEDGITWTLDQSSEVLGSGKTLTIQVKEFGDAGQYTCHKGGEVLSHSLLLLHKKEDGIWSTDILKDQKEPKNKTFLRCEAKNYSGRFTCWWLTTISTDLTFSVKSSRGSSDPQGVTCGAATLSAERVRGDNKEYEYSVECQEDSACPAAEESLPIEVMVDAVHKLKYENYTSSFFIRDIIKPDPPKNLQLKPLKNSRQVEVSWEYPDTWSTPHSYFSLTFCVQVQGKSKREKKDRVFTDKTSATVICRKNASISVRAQDRYYSSSWSEWASVPCSRNLPVATPDPGMFPCLHHSQNLLRAVSNMLQKARQTLEFYPCTSEEIDHEDITKDKTSTVEACLPLELTKNESCLNSRETSFITNGSCLASRKTSFMMALCLSSIYEDLKMYQVEFKTMNAKLLMDPKRQIFLDQNMLAVIDELMQALNFNSETVPQKSSLEEPDFYKTKIKLCILLHAFRIRAVTIDRVMSYLNASKVDKRVESKYGPPCPPCPAPEFLGGPSVFLFPPKPKDTLMNSRTPEVTCVVVDVSQEDPEVQFNWYVDGVEVHNAKTKPREEQFNSTYRVVSVLTVLHQDWLNGKEYKCKVSNKGLPSSIEKTISKAKGQPREPQVYTLPPSPEEMTKNQVSLTCLVKGFYPSDIAVEWESNGQPENNYKTTPPVLDSDGSFFLYSRLTVDKSRWQEGNVFSCSVMHEALHNQYTQKSLSLSLGK
notes: mature; As m1 with I253N and H435Q (EU) in the Fc; also called NHQ variant; not shown: Gly-Ser-linker between p40 and p35
fold reduction of affinity against IL-12Fc WT: ~8 fold
